Results on 1 molecule are retold here after paper PMC9935396, “Structures of transcription preinitiation complex engaged with the +1 nucleosome” (Nature Structural & Molecular Biology, 2022).

This assay concerns the target T1, Tfb2 (p52), subunit of TFIIH (S. cerevisiae, UniProt Q02939 1-513).
T1 construct: Tfb2 (p52 in human), subunit of S. cerevisiae TFIIH; Stood in the assay as a subunit of TFIIH
T1 sequence: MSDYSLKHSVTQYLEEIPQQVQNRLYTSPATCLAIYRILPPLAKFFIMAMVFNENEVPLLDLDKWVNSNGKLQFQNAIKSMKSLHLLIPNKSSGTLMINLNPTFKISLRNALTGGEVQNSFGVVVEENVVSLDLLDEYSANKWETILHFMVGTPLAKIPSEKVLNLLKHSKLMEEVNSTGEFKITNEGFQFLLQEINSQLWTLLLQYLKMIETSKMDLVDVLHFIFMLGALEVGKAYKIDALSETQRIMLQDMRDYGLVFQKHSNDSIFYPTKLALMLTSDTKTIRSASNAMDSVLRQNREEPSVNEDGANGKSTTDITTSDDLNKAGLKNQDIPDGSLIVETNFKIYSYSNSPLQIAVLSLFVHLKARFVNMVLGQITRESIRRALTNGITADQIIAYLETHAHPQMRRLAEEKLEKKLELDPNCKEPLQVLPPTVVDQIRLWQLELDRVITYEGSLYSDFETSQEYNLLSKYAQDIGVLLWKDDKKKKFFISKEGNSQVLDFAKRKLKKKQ
In words: cryo-EM structure; PIC-nucleosome complex A, without NTPs; PIC assembled in vitro on nucleosomal 209 bp His4 promoter/Widom-601 scaffold, GraFix (15-40% sucrose, 0-0.1% glutaraldehyde); overall 3.3 Å. As to conditions: both partners purified.

B1: Tfb5, subunit of TFIIH (natural protein, S. cerevisiae)
chain: MARARKGALVQCDPSIKALILQIDAKMSDIVLEELDDTHLLVNPSKVEFVKHELNRLLSKNIYNPMDEEENQ
notes: Tfb5, subunit of S. cerevisiae TFIIH; Stood in the assay as a subunit of TFIIH
On to B1, for which the binding result was “binds”.
